Assay results: patent publication US20250270343A1 (Alector, published 2025)
Positions count from the first letter of the chain named.

T1: mouse GPNMB endogenously expressed on B16F10 cells (mouse, UniProt Q99P91 23-574)
T1 construct: whole, on cells; also called moGPNMB
T1 sequence (looked up): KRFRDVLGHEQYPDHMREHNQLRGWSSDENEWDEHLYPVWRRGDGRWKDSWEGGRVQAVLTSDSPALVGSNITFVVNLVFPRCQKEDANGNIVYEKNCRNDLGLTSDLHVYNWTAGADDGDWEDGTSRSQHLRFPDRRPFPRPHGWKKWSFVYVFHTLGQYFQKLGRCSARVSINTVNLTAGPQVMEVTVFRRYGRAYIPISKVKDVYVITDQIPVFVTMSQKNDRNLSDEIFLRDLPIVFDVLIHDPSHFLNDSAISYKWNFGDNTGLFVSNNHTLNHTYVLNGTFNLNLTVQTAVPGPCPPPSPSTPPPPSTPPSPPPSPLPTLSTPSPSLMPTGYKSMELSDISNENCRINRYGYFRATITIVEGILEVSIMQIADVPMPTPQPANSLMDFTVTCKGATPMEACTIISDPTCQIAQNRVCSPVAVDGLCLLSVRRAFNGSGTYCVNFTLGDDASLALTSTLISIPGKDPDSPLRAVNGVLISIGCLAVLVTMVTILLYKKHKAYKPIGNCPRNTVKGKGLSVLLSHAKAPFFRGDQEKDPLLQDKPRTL

T2: soluble cynomolgus GPNMB (recombinant extracellular domain) (cynomolgus, UniProt Q14956 23-499 (human entry), limits assumed)
T2 chain: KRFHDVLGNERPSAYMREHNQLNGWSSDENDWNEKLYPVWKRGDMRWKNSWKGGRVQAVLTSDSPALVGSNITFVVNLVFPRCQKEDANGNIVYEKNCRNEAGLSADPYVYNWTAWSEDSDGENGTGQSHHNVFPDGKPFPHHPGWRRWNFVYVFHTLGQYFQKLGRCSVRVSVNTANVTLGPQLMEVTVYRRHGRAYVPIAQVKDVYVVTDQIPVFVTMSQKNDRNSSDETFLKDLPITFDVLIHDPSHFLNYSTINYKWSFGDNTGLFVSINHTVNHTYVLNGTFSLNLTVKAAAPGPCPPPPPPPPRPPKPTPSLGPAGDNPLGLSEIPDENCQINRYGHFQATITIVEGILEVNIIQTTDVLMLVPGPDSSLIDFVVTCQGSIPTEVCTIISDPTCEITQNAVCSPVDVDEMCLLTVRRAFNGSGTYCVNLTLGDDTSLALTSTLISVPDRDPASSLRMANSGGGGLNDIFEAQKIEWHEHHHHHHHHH

T3: soluble human GPNMB (recombinant extracellular domain) (human, UniProt Q14956 23-498)
T3 construct: also called huGPNMB; recombinant human GPNMB extracellular domain; not shown: C-terminal polyhistidine or Avi-His tag
T3 sequence: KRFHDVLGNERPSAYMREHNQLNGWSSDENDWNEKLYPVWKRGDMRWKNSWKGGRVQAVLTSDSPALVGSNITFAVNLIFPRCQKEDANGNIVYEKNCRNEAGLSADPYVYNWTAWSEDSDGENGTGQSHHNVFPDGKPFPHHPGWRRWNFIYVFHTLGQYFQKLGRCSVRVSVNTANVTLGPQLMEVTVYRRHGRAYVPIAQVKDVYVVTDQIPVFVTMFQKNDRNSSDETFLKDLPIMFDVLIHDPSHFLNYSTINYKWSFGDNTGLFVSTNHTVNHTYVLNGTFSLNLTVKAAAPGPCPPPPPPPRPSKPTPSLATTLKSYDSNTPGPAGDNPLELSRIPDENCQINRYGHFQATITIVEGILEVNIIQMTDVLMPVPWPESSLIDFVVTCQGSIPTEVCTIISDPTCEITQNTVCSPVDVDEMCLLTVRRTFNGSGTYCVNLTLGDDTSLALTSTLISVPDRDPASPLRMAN

B1: anti-GPNMB antibody GPN-11 (antibody, human IgG1, V domains shown)
VH: QVQLQQPGAELVKPGASVKLSCKASGYTFTSYWMHWVKQRPGQGLEWIGEINSSNGRTNYNEKFKTKATLTVDRSSSTAYMQLSSLTSEDSAVYYCARLGYYSGSPYPYYAMDCWGQGTSVTVSS
VL: DIQMTQSPASLSVSVGETVTITCRASENIYSNLAWYQQKQGKSPQLLVYAATNLADGVPSRFSGSGSGTQYSLKINSLQSEDFGSYYCQHFWNTPPTFGGGTKLEIK
notes: chimeric
B2: anti-GPNMB antibody GPN-26 (antibody, human IgG1, V domains shown)
VH: EVQLQQSGPELVKPGASVKISCKASGYSFTGYYMNWVRQSPEKSLEWIGEINPSTGITTYNQKFKAKATLTVDKSSNTAFMQLKSLTSEDSAVYYCARPASWFDYWGQGTLVTVSA
VL: DIQMTQSPSSLSASLGERVSLTCRASQEISGHLSWLQQKPDGTIKRLIYAASTLDSGVPKRFSGSRSGSDYSLTISSLESEDFADYYCLQYASYPYTFGGGTKLEIK
notes: chimeric
B3: anti-GPNMB antibody GPN-07 (antibody, human IgG1, V domains shown)
VH: QVQLQQSGAEQVKPGASVKLSCKASGYTFTSYYMYWVKQRPGQGLEWIGEINPSNGGTYFNEKFKSKATLTVDKSSSTAYMHLSSLTSEDSAVYYCTRGGTYYAYWGQGTLVTVSA
VL: B2 VL with I29M
notes: chimeric
B4: anti-GPNMB antibody GPN-22 (antibody, human IgG1, V domains shown)
VH: QVQLQQPGAERVKPGASVKMSCKASGYTFTSYWITWVKQRPGQGLEWIGDIFPGSGSTNYHEKFKSKATLTVDTSSSTAYMQLSSLTSEDSAVYYCSRGYFGSSFSDYWGQGTSVTVSS
VL: B2 VL with A25T, H32Y, A50S, A51T, Y94S, Y96P, G100S
notes: chimeric
B5: anti-GPNMB antibody GPN-30 (antibody, human IgG1, V domains shown)
VH: EVQLQQSGPELVNPGASVRISCKASGYSFTGYYMNWVKQSPEKSLEWIGEINPNTGFTTYNQNFKAKATLTVDKSSSTAYIQLKSLTSEDSAVYYCTRPSPSFDYWGQGTTLTVSS
VL: B2 VL with V19G
notes: chimeric
B6: anti-GPNMB antibody GPN-25 (antibody, human IgG1, V domains shown)
VH: B2 VH with R38K, S54G, T55S, N77S, F80Y, M81L, D104A
VL: B2 VL with L21F, T22I
notes: chimeric
B7: anti-GPNMB antibody GPN-31 (antibody, human IgG1, V domains shown)
VH: B2 VH with R38K, S44N, S54N, I57G, N77T, F80Y, A97T
VL: B2 VL with S65R, E105A
notes: chimeric
B8: anti-GPNMB antibody GPN-09 (antibody, human IgG1, V domains shown)
VH: B3 VH with Q11L, M34I, S66N, H82Q, T101N
VL: B2 VL with S34G, S52L
notes: chimeric
B9: anti-GPNMB antibody GPN-34 (antibody, human IgG1, V domains shown)
VH: EVKLVESGGGLVQPGRSLKLSCAASGFNFYDYWMGWVRQAPGKGLEWIGEINKDSRTINYTPFLKDRFTISRDNAQNTLYLQMSKLGSEDTAIYYCAREGRVPFDYWGQGVMVTVSS
VL: DIQMTQSPSSMSVSLGDTVTIPCRASQDVGSYVNWFQQKPGKSPRHMIYRATNLADGVPSRFSGSRSGADYSLTISSLESEDVADYHCQQYAEYPLTFGSGTKLEIK
notes: chimeric
B10: anti-GPNMB antibody GPN-03 (antibody, human IgG1, V domains shown)
VH: QVQLQQSGPELVKPGASVKLSCKASGYTFTNYYMYWVKQRPGQGLEWIGEINPRNGGTNFNEKFKSKATLTVDKSSSTAYMQLSSLTFEDSAVYYCTTGLAYWGQGTLVTVSA
VL: DVVMTQTPLSLPVSLGDQASISCRSSQSLVHSDGNTYLHWYLQKPGQSPKLLIYKVSTRFSGVPDRFSGSGSGTDFTLKISRVEAEDLGVYFCSQSTHVPWTFGGGTKLEIK
notes: chimeric
B11: anti-GPNMB antibody GPN-08 (antibody, human IgG1, V domains shown)
VH: QVQLQQPGAELVKPGASVKLSCRASGYTFTSYWLHWVKQRPGQGLEWIGEINPSDGRTNYIEKVKTKATLTVDKSSSTAYMQLSSLTSEDSAVYYCARSGGNYAWFAYWGQGTLVTVSA
VL: DIVMTQSHKFMSTSVGDRVSITCKASQDVSPSVAWYQQRPGQSPKLLIYSASYRYTGVPDRFTGSGSGTDFTFTISSVQAEDLAVYYCQQHYSIPLTFGAGTKLELK
notes: chimeric

What follows are binders tested against T1, mouse GPNMB endogenously expressed on … (assay: FACS on B16F10 mouse melanoma cells (endogenous mouse GPNMB); single antibody concentration (not given); APC anti-human IgG secondary; MFI as fold over background).
Description: Recombinant anti-GPNMB antibodies of the present disclosure were examined for their ability to bind human and/or mouse GPNMB expressed on Freestyle293-huGPNMB+ or B16F10 cells, respectively. B16F10 cells are a murine melanoma cell line from a C57BL/6J mouse that endogenously express high levels of mouse GPNMB. The antibodies were also tested for their ability to bind to a human macrophage cell line (U937 cells) engineered to express human GPNMB. Cells were harvested, plated at 100,000 cells/well in a 96-well round bottom plate, and incubated in 100 μl FACS buffer (PBS containing 2% FBS, 2 mM EDTA) containing anti-GPNMB monoclonal antibodies of the present disclosure for 30 minutes on ice. Cells were then washed and incubated in 100 ul FACS buffer containing 1 μg/ml APC-conjugated anti-human IgG secondary antibody for 30 minutes in ice. Cells were washed twice in cold FACS buffer and acquired on a BD FACS Canto. Data analysis and calculation of MFI values was performed with FlowJo (TreeStar) software version 10.0.7. […]

binding result | Binder
no binding | B1
no binding | B2
no binding | B3
no binding | B4
no binding | B5
no binding | B6
no binding | B7
no binding | B8
no binding | B9
no binding | B10
no binding | B11

Biological target: T2, soluble cynomolgus GPNMB (recombinant …)
Test: SPR Carterra, Ab immobilized
Description: (§1) Binding kinetics of human anti-GPNMB IgG1 antibodies of the present disclosure to human, cynomolgus, and mouse GPNMB were evaluated using a Carterra LSA instrument (Carterra, Salt Lake City, UT). […] A HC200M sensor chip (Carterra) was activated using the single channel flow cell with a 7-minute injection of a 1:1:1 mixture of 100 mM MES pH 5.5, 100 mM sulfo-NHS, 400 mM EDC (all reconstituted in MES pH 5.5; 100 μl of each mixed in vial immediately before running assay). After switching to the multi-channel array flow cell, the antibodies were injected over the activated chip in a 96-spot array for 15 minutes. The remaining unconjugated active groups on the chip were then blocked by injecting 1M Ethanolamine pH 8.5 (Carterra) for 7 minutes using the single channel flow cell.
(§2) After priming with running buffer (HBS-EP+, Teknova) with 0.5 mg/ml BSA (Sigma), the immobilized anti-GPNMB antibodies were tested for their ability to bind to several forms of recombinant GPNMB extracellular domain, including human, cynomolgus, and mouse orthologs as described above. Estimates of affinity were generated by injecting each analyte over the entire antibody array using the single channel flow cell. GPNMB analytes were diluted to 2.5, 7.4, 22, 67, 200, and 600 nM in running buffer, and injected in serial from lowest to highest concentration without regeneration. Two buffer blanks were run between each series (one species per series). Data were processed and analyzed using Kinetics high-throughput kinetics analysis software (Carterra).

Kd | koff | kon | Binder
12.1 nM | 0.00095 s⁻¹ | 83000 M⁻¹ s⁻¹ | B1
8.9 nM | 0.00027 s⁻¹ | 31000 M⁻¹ s⁻¹ | B2
11.3 nM | 0.00025 s⁻¹ | 22000 M⁻¹ s⁻¹ | B3
104 nM | 0.0033 s⁻¹ | 32000 M⁻¹ s⁻¹ | B4
5.1 nM | 0.00013 s⁻¹ | 26000 M⁻¹ s⁻¹ | B5
7.4 nM | 0.0002 s⁻¹ | 30000 M⁻¹ s⁻¹ | B6
11.2 nM | 0.00036 s⁻¹ | 32000 M⁻¹ s⁻¹ | B7
8.4 nM | 0.00012 s⁻¹ | 14000 M⁻¹ s⁻¹ | B8
0.4 nM | 0.00011 s⁻¹ | 250000 M⁻¹ s⁻¹ | B9
38.7 nM | 0.0021 s⁻¹ | 54000 M⁻¹ s⁻¹ | B10
32.8 nM | 0.0015 s⁻¹ | 48000 M⁻¹ s⁻¹ | B11

The binders below were run against T3, soluble human GPNMB (recombinant …) (assay: SPR Carterra, Ab immobilized).
Description: as §1, §2

Kd | koff | kon | Binder
14.4 nM | 0.00095 s⁻¹ | 69000 M⁻¹ s⁻¹ | B1
11.1 nM | 0.00027 s⁻¹ | 27000 M⁻¹ s⁻¹ | B2
16.6 nM | 0.00029 s⁻¹ | 19000 M⁻¹ s⁻¹ | B3
120 nM | 0.0034 s⁻¹ | 28000 M⁻¹ s⁻¹ | B4
5 nM | 0.00012 s⁻¹ | 26000 M⁻¹ s⁻¹ | B5
11.4 nM | 0.00028 s⁻¹ | 26000 M⁻¹ s⁻¹ | B6
11.7 nM | 0.00028 s⁻¹ | 26000 M⁻¹ s⁻¹ | B7
9 nM | 0.00011 s⁻¹ | 12000 M⁻¹ s⁻¹ | B8
0.4 nM | 6.3e-05 s⁻¹ | 190000 M⁻¹ s⁻¹ | B9
29.6 nM | 0.0019 s⁻¹ | 100000 M⁻¹ s⁻¹ | B10
36 nM | 0.0014 s⁻¹ | 40000 M⁻¹ s⁻¹ | B11
